Test results: patent US20110275122A1 (Amgen, published 2011)

B1: SEQ ID NO: 284 (peptide)
peptide: IEGHGSQKPTAARALESTSSLTTRTRTTSICAQQDMVGPTIRQWLAARACI
B2: SEQ ID NO: 250 (peptide)
peptide: IEGRWPPPQFPVTQQHSLERVGRPPPSVELPRPTFVCAQIEGPTFKQWQRCLREHS
B3: SEQ ID NO: 257 (peptide)
peptide: IEGYVGGPYEQTNSLERVPPTLAWKYGPRTPSICAQIEGPTFKQWQQCLSDHS
B4: SEQ ID NO: 249 (peptide)
peptide: IEGEPVSDGKRRPRVHSLERVDAVHAKVGPSICAQIEGPTFKQWQKCKRAHS
B5: SEQ ID NO: 254 (peptide)
peptide: IEGRWPPPQFPVTEHHSLERVGRRPPNAQMPQSIFICGQNEGPTFQYCQRCLREHS
B6: SEQ ID NO: 246 (peptide)
peptide: IEGQSWEFENDRVPAHSLERVLLLRRVPTEPSGPSICAQIEGPTFKQWQECINGHS

These binders were tested against T1, c-mpl receptor (Homo sapiens (Human), UniProt P40238 26-491, The MPL used for panning was biotinylated; the biotin site is not stated and is not carried by the letters.) (assay: phage-ELISA).
T1 construct: also called TPO receptor
T1 sequence: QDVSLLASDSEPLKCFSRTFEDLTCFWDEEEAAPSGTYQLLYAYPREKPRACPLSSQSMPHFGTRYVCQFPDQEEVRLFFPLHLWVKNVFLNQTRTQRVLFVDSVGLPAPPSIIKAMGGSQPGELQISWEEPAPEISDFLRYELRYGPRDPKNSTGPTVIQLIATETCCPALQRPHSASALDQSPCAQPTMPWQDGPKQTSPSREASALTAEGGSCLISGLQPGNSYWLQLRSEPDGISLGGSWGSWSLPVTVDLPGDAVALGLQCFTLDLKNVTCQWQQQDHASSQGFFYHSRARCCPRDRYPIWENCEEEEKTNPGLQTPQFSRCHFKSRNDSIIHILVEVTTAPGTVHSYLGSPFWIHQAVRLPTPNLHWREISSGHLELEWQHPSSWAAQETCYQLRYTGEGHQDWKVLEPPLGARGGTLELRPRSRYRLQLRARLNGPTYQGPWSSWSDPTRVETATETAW

Point of comparison: IEGPTFKQWQRWRLLHS [SEQ ID NO: 251], Relative activity 149. Against it:
- B1 — lower, 92.1
- IEGWWWQLYFHAKDDHS [SEQ ID NO: 260] — lower, 126
- IEGPSFTPWFHERRSHS [SEQ ID NO: 268] — lower, 110
- IEGPTFEQWQHWRRGHS [SEQ ID NO: 285] — lower, 91.5
- IEGWPWQLYVHPEGEHS [SEQ ID NO: 259] — lower, 129
- B2 — the same, 149
- IEGPTFKQWQRWRKMHS [SEQ ID NO: 253] — lower, 144
- IEGWIWRQWLAARA [SEQ ID NO: 286] — lower, 91.4
- IEGWVWCQWLAARA [SEQ ID NO: 290] — lower, 79.1
- IEGWIWRPWLAARA [SEQ ID NO: 287] — lower, 83.3
- IEGWVWWPWLAARA [SEQ ID NO: 296] — lower, 63.5
- IEGWVWRQWLAARA [SEQ ID NO: 301] — lower, 52.1
- IEGPTFKQWQKWRKTHS [SEQ ID NO: 274] — lower, 105
- IEGWWWQFYFHAKEDHS [SEQ ID NO: 255] — lower, 136
- IEGWWWQFYFHPKEDHS [SEQ ID NO: 262] — lower, 124
- PSICAQIEGPTFKQWQTCMRAHS [SEQ ID NO: 256] — lower, 133
- IEGQSWLRRLHWKEEHS [SEQ ID NO: 272] — lower, 108
- IEGPTFKQWQVWRNRHS [SEQ ID NO: 271] — lower, 108
- IEGPTFKQWQAARMHHS [SEQ ID NO: 265] — lower, 122
- IEGWTWQFYVHPKGDHS [SEQ ID NO: 264] — lower, 122
- IEGWWWQFYAHPQGDHS [SEQ ID NO: 281] — lower, 95
- IEGWTWQFYAHPQGDHS [SEQ ID NO: 317] — lower, 24.2
- IEGWSWQFYAHPKGDHS [SEQ ID NO: 300] — lower, 52.6
- IEGWPWQFYAHPQGDHS [SEQ ID NO: 289] — lower, 80.3
- IEGPTFKQWQWLRRHHS [SEQ ID NO: 269] — lower, 109
- IEGPTFKQWQMLRRHHS [SEQ ID NO: 328] — lower, 12.5
- IEGPTLHEWLRWLRQHS [SEQ ID NO: 291] — lower, 78.3
- IEGWSWQFYFHAKGDHS [SEQ ID NO: 277] — lower, 104
- IEGPTFKQWQVRQKTHS [SEQ ID NO: 276] — lower, 105
- IEGPTFKQWQKCRNMHS [SEQ ID NO: 247] — higher, 164
- IEGPTFKQWQKLRRVHS [SEQ ID NO: 248] — higher, 155
- IEGPTFKQWQKLRRSHS [SEQ ID NO: 261] — lower, 125
- IEGWPRQLYAHAKEDHS [SEQ ID NO: 280] — lower, 95.6
- IEGPTFKQWQACLHSHS [SEQ ID NO: 266] — lower, 114
- IEGPTFKQWQYWRAKHS [SEQ ID NO: 275] — lower, 105
- B3 — lower, 131
- B4 — higher, 150
- B5 — lower, 137
- IEGPTFKQWQKSRTKHS [SEQ ID NO: 263] — lower, 124
- IEGRTWQLYFHAKEEHS [SEQ ID NO: 278] — lower, 102
- IEGYWWYASWAARA [SEQ ID NO: 288] — lower, 80.4
- IEGPTFKQWQGRSKRHS [SEQ ID NO: 258] — lower, 131
- IEGPTFKQWQAWRKKHS [SEQ ID NO: 252] — lower, 146
- IEGWWWQFYVHAKGDHS [SEQ ID NO: 270] — lower, 109
- IEGPTLRQRLAARA [SEQ ID NO: 299] — lower, 57.3
- IEGPTLRQWLAARA (Positive control of the phage-ELISA) [IEGPTLRQWLAARA (positive control)] — higher, 150
- B6 — higher, 173
